Experimental data published in US20100242127.

System: 75 aa long oligopeptide with the correct sequence of amino acids 351-399 of the α2 subunit of the GABAA receptor

recombinant p42 MAP Kinase (Erk2) (New England Biolabs), sequence (P28482 2-360): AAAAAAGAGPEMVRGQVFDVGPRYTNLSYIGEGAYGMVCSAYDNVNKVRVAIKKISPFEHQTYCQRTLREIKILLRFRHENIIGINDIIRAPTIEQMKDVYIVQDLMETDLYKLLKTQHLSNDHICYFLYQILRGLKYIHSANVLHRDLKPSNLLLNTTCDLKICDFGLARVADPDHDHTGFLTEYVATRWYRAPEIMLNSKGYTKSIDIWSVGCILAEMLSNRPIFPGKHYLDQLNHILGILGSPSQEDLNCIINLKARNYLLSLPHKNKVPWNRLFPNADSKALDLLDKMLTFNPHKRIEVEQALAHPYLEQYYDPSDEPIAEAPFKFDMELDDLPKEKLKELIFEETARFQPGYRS

recombinant p42 MAP Kinase (Erk2) (New England Biolabs)
average share of total phosphorylation at each of the other nine Ser/Thr residues (in vitro kinase assay, ^32P incorporation): the other nine Ser/Thr residues are phosphorylated at an average of 4% each
incorporation of ^32P as a readout of phosphorylation (in vitro kinase assay): the construct with the wildtype sequence shows a much higher incorporation of ^32P than the second construct with the mutated T393
share of total phosphorylation at T393 (in vitro kinase assay, ^32P incorporation): 63% of total phosphorylation occurs at the putative Erk2 site
